# Reference: patent US20240190920A1, “BECLIN 1-TARGETED STAPLED PEPTIDE AND PHARMACEUTICAL COMPOSITION” (Shenzhen Research Institute of the Hong Kong Polytechnic …, priority 2021, published 2024)
# Bridge positions count the residues as written; N and C are the ends. Square brackets hold non-standard residues; d marks the D form. R8 = C=CCCCCCC[C@@](C)(N)C(=O)O; S5 = C=CCCC[C@](C)(N)C(=O)O
# B1: i7-01s-31 (Ac-[Tat]-VLFN(R8)[…](S5)RKV-NH2) (peptide)
# peptide: Ac-YGRKKRRQRRRVLFN[R8]LVDVIK[S5]RKV-NH2
# modifications: staple 16-23
# SMILES: CC[C@H](C)[C@@H]1NC(=O)[C@H](C(C)C)NC(=O)[C@H](CC(=O)O)NC(=O)[C@H](C(C)C)NC(=O)[C@H](CC(C)C)NC(=O)[C@](C)(NC(=O)[C@H](CC(N)=O)NC(=O)[C@H](Cc2ccccc2)NC(=O)[C@H](CC(C)C)NC(=O)[C@@H](NC(=O)[C@H](CCCNC(=N)N)NC(=O)[C@H](CCCNC(=N)N)NC(=O)[C@H](CCCNC(=N)N)NC(=O)[C@H](CCC(N)=O)NC(=O)[C@H](CCCNC(=N)N)NC(=O)[C@H](CCCNC(=N)N)NC(=O)[C@H](CCCCN)NC(=O)[C@H](CCCCN)NC(=O)[C@H](CCCNC(=N)N)NC(=O)CNC(=O)[C@H](Cc2ccc(O)cc2)NC(C)=O)C(C)C)CCCCCCC=CCCC[C@@](C)(C(=O)N[C@@H](CCCNC(=N)N)C(=O)N[C@@H](CCCCN)C(=O)N[C@H](C(N)=O)C(C)C)NC(=O)[C@H](CCCCN)NC1=O
# B2: i7-01s-54 (Ac-[Tat]-ALIQ(R8)[…](S5)RKR-NH2) (peptide)
# peptide: Ac-YGRKKRRQRRRALIQ[R8]QEDVEK[S5]RKR-NH2
# modifications: staple 16-23
# SMILES: CC[C@H](C)[C@H](NC(=O)[C@H](CC(C)C)NC(=O)[C@H](C)NC(=O)[C@H](CCCNC(=N)N)NC(=O)[C@H](CCCNC(=N)N)NC(=O)[C@H](CCCNC(=N)N)NC(=O)[C@H](CCC(N)=O)NC(=O)[C@H](CCCNC(=N)N)NC(=O)[C@H](CCCNC(=N)N)NC(=O)[C@H](CCCCN)NC(=O)[C@H](CCCCN)NC(=O)[C@H](CCCNC(=N)N)NC(=O)CNC(=O)[C@H](Cc1ccc(O)cc1)NC(C)=O)C(=O)N[C@@H](CCC(N)=O)C(=O)N[C@]1(C)CCCCCCC=CCCC[C@@](C)(C(=O)N[C@@H](CCCNC(=N)N)C(=O)N[C@@H](CCCCN)C(=O)N[C@@H](CCCNC(=N)N)C(N)=O)NC(=O)[C@H](CCCCN)NC(=O)[C@H](CCC(=O)O)NC(=O)[C@H](C(C)C)NC(=O)[C@H](CC(=O)O)NC(=O)[C@H](CCC(=O)O)NC(=O)[C@H](CCC(N)=O)NC1=O
# Assays:
# [1] = molecular target: T1, Beclin 1 coiled coil domain (human Beclin 1, residues 176-268) (human), Q14457; test: ITC, peptide titrated into Beclin 1 coiled coil domain, 25 C, one-site model
# [2] = molecular target: T1, Beclin 1 coiled coil domain (human …); test: ITC, compared with Tat-SP4
# T1 sequence (Q14457 176-268 limits assumed): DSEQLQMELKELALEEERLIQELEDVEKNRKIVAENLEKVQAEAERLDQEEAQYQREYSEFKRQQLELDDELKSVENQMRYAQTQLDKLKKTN
Binder,Kd [1] [µM],fold stronger binding affinity than Tat-SP4 [2] [fold]
B1,0.33,10
B2,311,–
